What is called IC50 is the concentration that inhibits the measured activity by half. High values mean weaker potency, low ones greater potency.

Sequence of Trypsin (P00760 24-246): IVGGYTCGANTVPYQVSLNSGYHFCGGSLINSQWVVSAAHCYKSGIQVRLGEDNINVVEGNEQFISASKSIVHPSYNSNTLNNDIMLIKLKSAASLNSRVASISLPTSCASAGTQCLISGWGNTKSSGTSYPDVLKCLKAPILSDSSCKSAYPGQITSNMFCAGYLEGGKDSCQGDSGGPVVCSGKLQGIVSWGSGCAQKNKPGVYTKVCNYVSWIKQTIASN

The test concerns the target Trypsin. The test is described as follows: trypsin-inhibitory assay (residual enzyme activity on a fluorogenic substrate); 100 pM trypsin pre-incubated with peptide (twofold dilution series) for 3 h at room temperature in 0.1 M NaCl, 10 mM CaCl2, 0.005% Triton X-100, 0.1 M Tris-HCl pH 8.0; residual activity with 10 uM Boc-Q-A-R-7-amido-4-methyl-coumarin; IC50 from a nonlinear fit of initial velocities (Prism).
Substance “chemically synthesized linear oxidized circularly permuted SFTI (prmSFTI) (peptide)” gave an IC50 of 0.361 nM. This counts as sub-nanomolar.

The substance “chemically synthesized backbone-cyclic sunflower trypsin inhibitor (SFTI) (peptide)” yielded a half-inhibitory concentration (IC50) of 0.171 nM.

The substance “cell-free synthesized linear oxidized circularly permuted SFTI (prmSFTI) (peptide)” displayed an IC50 of 0.332 nM.

Values taken from publication PMC8752827, “Towards a generic prototyping approach for therapeutically-relevant peptides and proteins in a cell-free translation system” (Nature Communications, 2022).
